Results on 23 molecules are retold here after US20050163775A1, “Combination therapy for B cell disorders” (Genentech, Inc., priority 2003, published 2005).

For data set [1], the system named is B cells. Nature of the data set: B cell depletion by anti-CD20 mAb, BR3-Fc or combination in hCD20+ mice (FIG. 29, 30). Type of data set: in vivo, mouse. Here is the method:
FACS analysis was performed on of spleen, blood, lymph node B cells (gated on CD21^+CD23^+).
Mice were treated with control IgG2a, BAFFR/BR3-Fc (100 μg/mouse IP daily for 12 days), anti-hCD20 mAb (100 μg/mouse IP on day 9) or the combination of BAFFR/BR3-Fc and anti-hCD20 mAb (same dosing as single treatment groups). B220^+ splenocytes were isolated on day 13 and stained for CD21 and CD23. N=5 mice/group.
In the Experimental Examples, the BR3-Fc or BAFFR/BR3-Fc used is hBR3-Fc of SEQ ID. NO. 2. […] Each group consisted of 4 mice. Two days following the last injection, the mice were sacrificed and analyzed for hCD20^+ B cells. FACS analysis of spleen, blood, lymph node and Peyer's Patches were analyzed for B cell markers (CD21^+CD23^+).
For the experiment shown in FIG. 30, hCD20 Tg+ mice were treated with control IgG2a, BAFFR/BR3-Fc (100 μg/mouse IP daily for 12 days), anti-hCD20 mAb (100 μg/mouse IP on day 9) or the combination of BAFFR/BR3-Fc and anti-hCD20 mAb (same dosing as single treatment groups). B220^+ splenocytes were isolated on day 13 and stained for CD21 and CD23. N=5 mice/group. […] The mice were treated with single doses of 0.1 mg control IgG2a, BAFF/BR3-Fc or anti-hCD20 mAb. Splenocytes were analyzed on day 4. N=5 mice/group.

Data set [2] in a line: Serum IgG and IgM in BR3-Fc treated mice. In kind it is in vivo, mouse.
Data set [3] is described as follows: Expected serum IgG and IgM in responding human patients. Type of data set: in vivo. To be noted: human patients responding to treatment.
Another data set deals with T1, BAFF/BLyS (Mus musculus, UniProt Q9WU72).
T1 construct: host or cells: lupus-prone mice
To be noted: lupus-prone mice; cited from earlier work.

Data set [4] has as its system T-independent B cell response. Kind of data set: T-independent immune response to Streptococcus pneumoniae IV after B cell depletion. In kind it is in vivo, mouse. To be noted: mAb day 0, S. pneumoniae IV i.v. day 7, response day 11. Here is the method:
On the 3 panels at the right, the spleen cells were stained for the streptococcus polysaccharide-phosphatidyl choline (the TI antigen). CD138 is a marker for plasma cells.
Next, it was determined whether upon B cell depletion, the mice were able to develop T independent immune response. […] At day 7, the mice were injected i.v. with Streptococcus pneumoniae IV to induce a response to the polysaccharide.

The subject of the next data set is lymphoid B cell lines. To be noted: binds human complement; cited from earlier work.
Data set [5] relates to B cells. To be noted: peripheral blood, lymph nodes, bone marrow; cited from earlier work.
The target in the next data set is T2, BLyS (Homo sapiens, UniProt Q9Y275).
T2 construct: A DNA fragment encoding human BAFF (residues 82-285) was cloned; His-tag (with thrombin cleavage site) (N, cleaved yes); made in house; host or cells: E. coli BL21 (DE3)
Nature of the data set: Competitive displacement ELISA (biotinylated miniBR3), peptide-PEG conjugates. In kind it is binding. Here is the method:
The plate was washed with PBS and blocked with 1% skim milk in PBS. […] After washing with PBS/0.05% Tween, 100 μl well of each dilution was transferred and incubated for 1 hour at room temperature. The plate was washed with PBS/0.05% Tween and incubated 15 min with 100 μl/well of 0.1 U/ml Streptavidin-POD (Boehringer Mannheim) in PBS/0.05% Tween.

Data set [6] has as its target T3, human BAFF (residues 82-285) (human, UniProt Q9Y275 82-285).
T3 construct: Coated on plates in the ELISAs; also used biotinylated or free in solution for phage sorting; also called BAFF82-285; BLyS82-285
Kind of data set: phage display selection on BAFF.

Data set [7] addresses T3, human BAFF (residues 82-285). Nature of the data set: competitive displacement ELISA on BAFF-coated plates, biotinylated miniBR3 as tracer. For orientation: In an ELISA, binding on a coated surface is turned into a signal by an enzyme label.

Where a SMILES comes first, the peptide text is derived from it. Bridges are numbered along the chain shown (N, C = ends). Where no end group is shown, it is not given here.

T2 sequence (Q9Y275 82-285): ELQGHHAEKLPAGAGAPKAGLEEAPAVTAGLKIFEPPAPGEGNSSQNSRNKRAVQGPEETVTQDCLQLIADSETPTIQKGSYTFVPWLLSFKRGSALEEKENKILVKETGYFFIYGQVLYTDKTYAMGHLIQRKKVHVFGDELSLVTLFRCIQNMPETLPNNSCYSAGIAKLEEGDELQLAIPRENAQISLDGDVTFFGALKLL
T3 sequence (Q9Y275 82-285): as above
T1 sequence (Q9WU72 127-309 limits assumed): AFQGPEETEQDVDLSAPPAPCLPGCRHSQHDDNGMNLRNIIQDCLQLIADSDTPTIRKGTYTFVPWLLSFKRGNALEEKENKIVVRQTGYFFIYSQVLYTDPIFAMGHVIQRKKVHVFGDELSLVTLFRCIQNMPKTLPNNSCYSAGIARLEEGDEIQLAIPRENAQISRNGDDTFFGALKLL

In the case of “BR3-Fc: hBR3-Fc immunoadhesin of SEQ ID NO. 2, BAFF antagonist”, in the data set with B cells [1] (hCD20+ mice), the “T2 and follicular B cells in the spleen” value was “decreases”; the “marginal zone B cells in the spleen” value is given as “decreases”. In addition, the “mature circulating B cells in the blood and lymph nodes” value with B cells [1] (hCD20+ mice, 100 micrograms every other day Days 1 through 12) was “decreases”. Moreover, the “MZ and T2/FO B cells in spleen (FIG. 30, panel 3)” value in the data set with B cells [1] (treatment for ~2 weeks, 100 μg/mouse IP daily for 12 days, splenocytes day 13) is on record as “marked decrease”. The “Serum levels of IgG and IgM” value in data set [2] is recorded as “reduced”. In addition, the “serum IgG and IgM levels” value in data set [3] is “reduction in serum IgG and IgM levels”. Further, the “autoimmune serologies, renal pathology and mortality” value with BAFF/BLyS is “improved autoimmune serologies, renal pathology and mortality”.
Take rituximab [Rituxan]: the “B cell response from the marginal zone and germinal centers of the spleen to T-independent antigen” value in data set [4] was “did not affect the B cell response”. Besides, in the data set with lymphoid B cell lines, the “complement-dependent cytotoxicity (CDC)” value was “lyses lymphoid B cell lines through complement-dependent cytotoxicity (CDC)”. Also, the B cell depletion entry in the data set with B cells [5] is “depletes B cells from the peripheral blood, lymph nodes, and bone marrow”.
Turning to `CC(=O)N[C@@H](CCC(=O)O)C(=O)N[C@H]1CSSC[C@@H](C(=O)NCC(=O)N[C@@H](CC(C)C)C(=O)N[C@@H](CC(C)C)C(=O)N[C@@H](CCCNC(=N)N)C(N)=O)NC(=O)[C@@H]2CCCN2C(=O)[C@H](C(C)C)NC(=O)[C@H](Cc2c[nH]c3ccccc23)NC(=O)[C@H](Cc2c[nH]cn2)NC(=O)[C@H](CCCNC(=N)N)NC(=O)[C@H](C(C)C)NC(=O)[C@H](CC(C)C)NC(=O)[C@H](CC(C)C)NC(=O)[C@H](CC(=O)O)NC(=O)[C@H](Cc2ccccc2)NC1=O` [BLyS0048] (Ac-ECFDLLVRHWVPCGLLR-NH2; disulfide 2-13), the IC50 (usually the concentration that inhibits the measured activity by half) at BLyS (3 ng/ml biotinylated miniBR3, four-parameter fit) came out at 14 nM; at BLyS (separate experiment), 15 nM.
With ECFDRLVNGWVPCAVLH (disulfide 2-13 (inferred)) [SEQ ID NO 123], the binding result in data set [6] was “binds”.
For Ac-ECFDLLVRHWVACGLLR-NH2 (disulfide 2-13 (inferred)) [Ac-ECFDLLVRHWVACGLLR-NH2 (BLyS0027)], the binding result in [7] was “binds”.
Consider ECFDILVGRWVPCGLIH (disulfide 2-13 (inferred)) [SEQ ID NO 116], for which the binding result in [6] is on record as “binds”.
For ECFDRLVNAWVDCRLLA (disulfide 2-13 (inferred)) [SEQ ID NO 124], the binding result in data set [6] was “binds”.
Consider ECFDVLVHRWVPCGLIR [SEQ ID NO 120], for which the binding result in [6] is “binds”.
Still for that read-out and setting: to ECFDSLVRLWVPCNLLR [SEQ ID NO 110] belongs “binds”; to ECFDTLVNAWVPCNLLD (disulfide 2-13 (inferred)) [SEQ ID NO 122], “binds”.
For the molecule ECFDVLVSAWVDCARLN (disulfide 2-13 (inferred)) [SEQ ID NO 109], in data set [6], the binding result is on record as “binds”.
Take ECFDPLVRVWVPCTVLR [SEQ ID NO 118]: the binding result in [6] is on record as “binds”.
The same measure, in the same setting: to ECFDRLVNRWVPCNLIV (disulfide 2-13 (inferred)) [SEQ ID NO 113] belongs “binds”; to ECFDHLVRIWVPCTALA (disulfide 2-13 (inferred)) [SEQ ID NO 121], “binds”.
As to ECFDALVHRWVDCAVLG (disulfide 2-13 (inferred)) [SEQ ID NO 127], in data set [6], the binding result was “binds”.
Regarding ECFDLLVRRWVPCHLIT [SEQ ID NO 115], in data set [6], the binding result was “binds”.
For ECFDPLVRDWVRCDILT (disulfide 2-13 (inferred)) [SEQ ID NO 117], in [6], the binding result is “binds”.
With ECFDSLVRAWVPCGVLS [SEQ ID NO 119], the binding result in data set [6] is listed as “binds”.
Same read-out and setting: under ECFDLLVNDWVPCGAIT (disulfide 2-13 (inferred)) [SEQ ID NO 125] stands “binds”.
On to Ac-ECFDLLVRAWVPCSVLK-NH2 (disulfide 2-13 (inferred)) [Ac-ECFDLLVRAWVPCSVLK-NH2 (BLyS0051)], for which, in data set [7], the binding result is recorded as “binds”.
Regarding ECFDILVNAWVPCRVIG (disulfide 2-13 (inferred)) [SEQ ID NO 112], the binding result in [6] is on record as “binds”.
With ECFDRLVRAWVPCTALT (disulfide 2-13 (inferred)) [SEQ ID NO 114], in data set [6], the binding result was “binds”.
ECFDALVRRWVDCSLLR [SEQ ID NO 126]: the binding result in [6] is “binds”.
